This passage reports reverse-splicing fitness results from the RNAGym collection of RNA variant scans (doi:10.1093/molbev/msab373).

The labels stand for the following.
B1: Azoarcus group I ribozyme (parent)
chain: GUGCCUUGCGCCGGGAAACCACGCAAGGGAUGGUGUCAAAUUCGGCGAAACCUAAGCGCCCGCCCGGGCGUAUGGCAACGCCGAGCCAAGCUUCGGCGCCUGCGCCGAUGAAGGUGUAGAGACUAGACGGCACCCACCUAAGGCAAACGCUAUGGUGAAGGCAUAGUCCAGGGAGUGGCGAAAGUCACACAAACCGG

Variants of B1 are the subject of this series. Nature of the series: reverse-splicing fitness (ratio to wild type); higher = more active; in vitro selection; Mg2+ level not given. The method, boiled down:
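An in vitro group I ribozyme library with randomized positions was T7-transcribed and gel-purified. In triplicate, 10 pmol RNA in EPPS pH 7.5 was reacted with 50 pmoles of a 30-nt RNA substrate for 1 h at 37 °C across several added MgCl2 levels (1–48 mM), then stopped with EDTA. Products were reverse transcribed from a substrate-complementary primer, PCR-amplified and sequenced (HiSeq 4000). Fitness is a variant's read proportion after selection over that before, normalised to wild type.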
C82G A111C C150A C169U: the reverse-splicing fitness was determined as 0.0119. Under C82G A111C C150A C169G stands 0.00787; under C82G A111C U176A, 0.133. Under C82G A111C U176G stands 0.0517; under C82G A111C U176C, 0.139; under C82G A111G A120C C150U C169G U176G, 0.00572. Under C82G A111G A120C C150U C169G U176A stands 0.0185; under C82G A111G A120C C150U C169G U176C, 0.0206.

For the variant C82G A111G A120C A145U C150G C169G U176A, the reverse-splicing fitness was 0.00957. For C82G A111G A120C A145U C150G C169G U176C the value was 0.0102; for C82G A111G A120C A145U C150G C169G U176G, 0.00515.

On to C82G A111G A120C A145C C150U C169U, for which the reverse-splicing fitness was 0.0103. Consider C82G A111G A120C A145C C150U C169G, for which the reverse-splicing fitness was 0.00849. For C82G A111G A120C A145C C150U C169A the value was 0.00918; for C82G A111G A120C A145G C150G, 0.0123; for C82G A111G A120C A145G C150U, 0.0625. For C82G A111G A120C A145G C150A the value was 0.0184; for C82G A111G A120C, 0.0886. For the variant C82G A111G A120G, the reverse-splicing fitness worked out at 0.0208. Turning to C82G A111C C169U U176G, the reverse-splicing fitness is 0.00759.

With C82G A111C C169U U176A, the reverse-splicing fitness turned out to be 0.0194. For C82G A111C C169U U176C the value was 0.0154. For C82G A111G A120C A145U C169U U176A the value was 0.0129; for C82G A111G A120C A145U C169U U176G, 0.00484. For C82G A111G A120C A145U C169U U176C the value was 0.0124; for C82G A111G A120C A145U C150G C169U, 0.00899. In the case of C82G A111G A120C A145U C150G C169A, the reverse-splicing fitness turned out to be 0.00918. For C82G A111G A120C A145U C150G C169G the value was 0.00697; for C82G A111G A120C A145U U176C, 0.0434; for C82G A111G A120C A145U U176G, 0.00776.

Regarding C82G A111G A120C A145U U176A, the reverse-splicing fitness came to 0.0294. For C82G A111G A120C A145C C150U C169A U176G the value was 0.00589; for C82G A111G A120C A145C C150U C169A U176A, 0.012. Consider C82G A111G A120C A145C C150U C169A U176C, for which the reverse-splicing fitness came out at 0.00829.

Turning to C82G A111G A120C A145C C150A C169A U176G, the reverse-splicing fitness was determined as 0.00653.

Regarding C82G A111G A120C A145C C150A C169A U176A, the reverse-splicing fitness was 0.0183. For C82G A111G A120C A145C C150A C169A U176C the value was 0.00849; for C82G A111G A120C A145C C150G C169G U176G, 0.006; for C82G A111G A120C A145C C150G C169G U176A, 0.0112.

C82G A111G A120C A145C C150G C169G U176C: the reverse-splicing fitness came out at 0.0101. Take C82G A111C C150G U176G: the reverse-splicing fitness was determined as 0.00449. Under C82G A111C C150G U176C stands 0.0159; under C82G A111C C150G U176A, 0.00967; under C82G A111G A120C A145U C150G C169A U176G, 0.00589. Under C82G A111G A120C A145U C150G C169A U176C stands 0.0134; under C82G A111G A120C A145U C150G C169A U176A, 0.0119; under C82G A111G A120C A145G C150G C169G U176A, 0.0109.

As to C82G A111G A120C A145G C150G C169G U176C, the reverse-splicing fitness was 0.0112. For C82G A111G A120C A145G C150G C169G U176G the value was 0.00653.

On to C82G A111G A120C A145G C150G U176A, for which the reverse-splicing fitness was determined as 0.00724. For C82G A111G A120C A145G C150G U176G the value was 0.0057; for C82G A111G A120C A145G C150G U176C, 0.011.

Consider C82G A111G A120C A145U C169A U176G, for which the reverse-splicing fitness was 0.00508. For C82G A111G A120C A145U C169A U176C the value was 0.0149; for C82G A111G A120C A145U C169A U176A, 0.0147. For C82G A111G A120C U176C the value was 0.045. Under C82G A111G A120C U176G stands 0.011; under C82G A111G A120C U176A, 0.0255.

C82G A111G A120C A145G C150U C169A U176C: the reverse-splicing fitness stood at 0.0173. For C82G A111G A120C A145G C150U C169A U176A the value was 0.0156; for C82G A111G A120C A145G C150U C169A U176G, 0.00689. Under C82G A111C C150U C169G U176G stands 0.00784; under C82G A111C C150U C169G U176A, 0.0133. For C82G A111C C150U C169G U176C the value was 0.0174; for C82G A111G A120C A145C C150U C169G U176C, 0.0152; for C82G A111G A120C A145C C150U C169G U176A, 0.0242. As for C82G A111G A120C A145C C150U C169G U176G, the reverse-splicing fitness was determined as 0.0061. For C82G A111G A120C A145G C150A C169G U176A the value was 0.02; for C82G A111G A120C A145G C150A C169G U176C, 0.0237. For C82G A111G A120C A145G C150A C169G U176G the value was 0.00696.

On to C82G A111C C150G C169G, for which the reverse-splicing fitness stood at 0.00655. For C82G A111C C150G C169U the value was 0.00898. C82G A111C C150G C169A: the reverse-splicing fitness stood at 0.00894. Under C82G A111G A120C A145U C150U C169U stands 0.0124; under C82G A111G A120C A145U C150U C169G, 0.0094. Under C82G A111G A120C A145U C150U C169A stands 0.01; under C82G A111G A120C A145C C150A U176G, 0.00662. For C82G A111G A120C A145C C150A U176A the value was 0.0112.

Consider C82G A111G A120C A145C C150A U176C, for which the reverse-splicing fitness is 0.0111. With C82G A111G A120C C150A C169U U176A, the reverse-splicing fitness was found to be 0.0165. For C82G A111G A120C C150A C169U U176C the value was 0.0175. For C82G A111G A120C C150A C169U U176G the value was 0.00877; for C82G A111C C150G C169G U176C, 0.00598; for C82G A111C C150G C169G U176G, 0.00603.
